Data from the supplement of paper PMC7125110.
± gives the standard error. Fewer inactive variants are shown than the library holds.

B1: glmS ribozyme (parent)
chain: AUAAAAGCGCCAGAACUACAGAAAUGUAGUUGACGAGGAGGAGGUUUAUCGAAUUUUCGGCGGAUGCCUCCAAA

Columns and labels:
Details in all cases: with glucosamine-6-phosphate
glucosamine-6-phosphate [1] = variants of: B1; assay: self-cleavage kobs at 40 uM GlcN6P; higher = faster cleavage; RNA array
Method in brief: (§1)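 A hybridised Cy3 probe tracked barcoded ribozyme variants, transcribed in situ by E. coli RNA polymerase on sequenced MiSeq chips, at 37 °C. The variants received 40 μM to 10 mM glucosamine-6-phosphate in HEPES/KCl/Mg(OAc)2 buffer. kobs came from decay fits and kcat and KM from weighted Michaelis–Menten fits.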

glucosamine-6-phosphate [2] = variants of: B1; assay: self-cleavage kobs at 10000 uM GlcN6P; higher = faster cleavage; RNA array
Method in brief: as §1

glucosamine-6-phosphate [3] = variants of: B1; assay: self-cleavage kobs at 640 uM GlcN6P; higher = faster cleavage; RNA array
Method in brief: as §1

glucosamine-6-phosphate [4] = variants of: B1; assay: self-cleavage kobs at 2500 uM GlcN6P; higher = faster cleavage; RNA array
Method in brief: as §1

glucosamine-6-phosphate [5] = variants of: B1; assay: self-cleavage kobs at 160 uM GlcN6P; higher = faster cleavage; RNA array
Method in brief: as §1

Variant	self-cleavage kobs at 40 uM GlcN6P (glucosamine-6-phosphate [1]) [s⁻¹]	self-cleavage kobs at 10000 uM GlcN6P (glucosamine-6-phosphate [2]) [s⁻¹]	self-cleavage kobs at 640 uM GlcN6P (glucosamine-6-phosphate [3]) [s⁻¹]	self-cleavage kobs at 2500 uM GlcN6P (glucosamine-6-phosphate [4]) [s⁻¹]	self-cleavage kobs at 160 uM GlcN6P (glucosamine-6-phosphate [5]) [s⁻¹]
G13U G60C	< 1e-05	< 1e-05	–	–	–
A14G C19A A20G G21A G60A	< 1e-05	–	–	–	–
A12G C16G G43C	< 1e-05	–	–	–	–
G13A G43A C67A	< 1e-05	–	–	–	–
A12G C68G C71U	< 1e-05	< 1e-05	< 1e-05	–	–
G13A U31C A36U C58A G60C G62A C67G	6.61e-05 ± 3.2e-05	–	–	0.000425 ± 0.00017	–
A12U G51C	< 1e-05	–	< 1e-05	< 1e-05	< 1e-05
A12U G44A C67U	0.00174 ± 0.00037	0.0153 ± 0.006	–	–	–
G13C U65G	< 1e-05	–	< 1e-05	< 1e-05	< 1e-05
A14G G38U C50U	< 1e-05	–	–	–	–
A12C C71A	6.84e-05 ± 9.7e-06	0.00229 ± 0.00033	0.000423 ± 6.6e-05	0.00201 ± 0.0003	–
A14U A42G G44U G63U	< 1e-05	–	–	< 1e-05	–
A12U A15G C71U	0.00147 ± 0.00036	–	–	–	–
A12G A36U A42U G51U A53C	< 1e-05	–	–	–	–
A12C U31C A39C U57G C67A	< 1e-05	< 1e-05	–	–	–
G13U C16G A64U C67G	< 1e-05	< 1e-05	–	–	–
A14C U49A	< 1e-05	< 1e-05	< 1e-05	–	–
A12U U45A U49G C50U G63U U69C	< 1e-05	< 1e-05	< 1e-05	< 1e-05	–
A14G U54G	0.00166 ± 0.00021	0.023 ± 0.0048	0.0114 ± 0.003	–	0.0021 ± 0.00047
A12U A52C	< 1e-05	4.23e-05 ± 1.8e-05	–	–	–
A14U C34U	< 1e-05	< 1e-05	< 1e-05	< 1e-05	< 1e-05
A14U C34G	< 1e-05	< 1e-05	< 1e-05	–	< 1e-05
A12C G59U C68G	< 1e-05	–	–	–	–
A14G C16A U54G	0.000211 ± 4.8e-05	0.00361 ± 0.00067	–	–	–
G13C A52U	< 1e-05	< 1e-05	< 1e-05	–	< 1e-05
G13C A52C	< 1e-05	–	< 1e-05	< 1e-05	–
A12G A42C U46C C61G	< 1e-05	< 1e-05	–	–	–
A12U G29U A33U A42U U49A	< 1e-05	–	–	–	–

Variant	self-cleavage kobs at 40 uM GlcN6P (glucosamine-6-phosphate [1]) [s⁻¹]	self-cleavage kobs at 10000 uM GlcN6P (glucosamine-6-phosphate [2]) [s⁻¹]	self-cleavage kobs at 640 uM GlcN6P (glucosamine-6-phosphate [3]) [s⁻¹]	self-cleavage kobs at 2500 uM GlcN6P (glucosamine-6-phosphate [4]) [s⁻¹]	self-cleavage kobs at 160 uM GlcN6P (glucosamine-6-phosphate [5]) [s⁻¹]
A14G U69C C70U	0.000104 ± 3.2e-05	0.00316 ± 0.00074	–	–	–
G13U A14C G35U G59C	< 1e-05	–	–	–	–
A12G G13U U31C U49G	< 1e-05	–	–	–	–
A12U G40A G44U	< 1e-05	–	< 1e-05	–	–
A12C G38C U45A	< 1e-05	< 1e-05	–	–	–
G13A G51A	< 1e-05	< 1e-05	< 1e-05	–	–
G13A G51C	< 1e-05	< 1e-05	–	–	< 1e-05
A12U U56A	0.00122 ± 0.00016	0.0626 ± 0.016	0.0157 ± 0.0027	0.04 ± 0.012	0.0024 ± 0.00059
A14G A15G G66U	0.0002 ± 4.3e-05	0.0089 ± 0.0018	–	0.00252 ± 0.0011	–
A14U A15G A33U A48U C50U G60C	< 1e-05	–	–	–	–
A12U G40A G63C	< 1e-05	–	–	–	–
G13A G35C G41U A53C U54A	< 1e-05	–	–	–	–
A12U G13C C34U G62A U65G	< 1e-05	–	–	–	–
G13U G38C G43U	< 1e-05	< 1e-05	–	–	–
G13C A36G	< 1e-05	< 1e-05	–	–	< 1e-05
G13A G51A G62C	< 1e-05	–	–	–	–
A12U U46C G59A	< 1e-05	5.26e-05 ± 1.6e-05	–	–	–
A14G U45A A48U	0.000108 ± 2.6e-05	0.00563 ± 0.001	–	–	–
G13C G35U G41U G43A G60C	< 1e-05	–	–	–	–
G13C G35C A39U	< 1e-05	–	–	–	–
A12G U30A A42G U54C	< 1e-05	6.88e-05 ± 2.4e-05	–	–	–
G13U C58A	4.24e-05 ± 1.8e-05	0.00176 ± 0.00026	0.000326 ± 5.2e-05	0.000524 ± 8.1e-05	7.4e-05 ± 1.6e-05
A12G G41C C61U	< 1e-05	< 1e-05	–	< 1e-05	–
A12G A53C U55G	< 1e-05	0.000115 ± 1.8e-05	–	–	–
A12C C34G G40U A52U C61U	< 1e-05	< 1e-05	–	–	–
G13A G44A U65A	< 1e-05	–	–	–	–
A12U A15G	0.00156 ± 0.00021	0.0602 ± 0.02	0.0146 ± 0.0029	0.0139 ± 0.0034	0.00363 ± 0.00072
